Laboratory results: patent US20260234222A1 (LEYDEN LABORATORIES B V, published 2026)
Like-named read-outs stand apart in the source and are kept apart here.

Assays:
Assay in all cases: cell-based or functional assay
[1] = target: SARS-CoV-2 Delta Spike antigen (SARS-CoV-2 Delta)
[2] = target: T1, SARS-CoV-2 Omicron BA.4/5 spike (SARS-CoV-2 Omicron BA.4/5)
[3] = target: SARS-CoV-2 Delta Spike antigen (SARS-CoV-2 Delta); remark: listed apart in the source
[4] = target: T1, SARS-CoV-2 Omicron BA.4/5 spike; remark: listed apart in the source
[5] = target: SARS-CoV-2 Omicron XBB.1.1 spike (SARS-CoV-2 Omicron XBB.1.1)
[6] = target: T1, SARS-CoV-2 Omicron BA.4/5 spike; remark: listed apart in the source

B1: Bispecific 1 (bispecific antibody)
heavy 1: not shown
light 1: EIVLTQSPGTLSLSPGERATLSCRASQSVRRNYFAWYQQKRGQAPRLLIYDASTRATGIPDRFSGSGSGTDFTLTISRLEPEDFAVYYCQQYDSSPPMYIFGQGTKLEIKSSASTKGPSVFPLAPSSKSTSGGTAALGCLVKDYFPEPVTVSWNSGALTSGVHTFPAVLQSSGLYSLSSVVTVPSSSLGTQTYICNVNHKPSNTKVDKKVEPKSC
heavy 2: not shown
light 2: QSALTQPPSASGSPGQSVTISCSGTSSDVGGYNFVSWYQHHPGKAPKILIYEVTKRPSGVPDRFSGSKSGNTASLTVSGLQAEDEADYYCSSYGGTNNLLFGGGTKLTVLGQPKAAPSVTLFPPSSEELQANKATLVCLISDFYPGAVTVAWKADSSPVKAGVETTTPSKQSNNKYAASSYLSLTPEQWKSHRSYSCQVTHEGSTVEKTVAPTECS
- Live virus neutralization IC50 [1]: 14.2 µg/mL
- Live virus neutralization IC50 [2]: 4.85 µg/mL
- Pseudovirion neutralization IC50 [3]: 0.307 µg/mL
- Pseudovirion neutralization IC50 [4]: 5.14 µg/mL
- Pseudovirion neutralization IC50 [5]: 11.9 µg/mL

B2: Parental mAb 1 (antibody, V domains shown)
VH: QEQLVQSGAEVKKPGASVKVSCKSSGFTFSYFYLHWVRQAPGQGLEWMGIINPRGDGTRYAQKFQGRVTMTRDASTGTLYMELRSLRSEDTAVYYCARGADHGAFDIWGQGTMVTVSS
VL: EIVLTQSPGTLSLSPGERATLSCRASQSVRRNYFAWYQQKRGQAPRLLIYDASTRATGIPDRFSGSGSGTDFTLTISRLEPEDFAVYYCQQYDSSPPMYIFGQGTKLEIK
notes: also called antibody according to the invention; first parental antibody
- Pseudovirion neutralization IC50 [6]: 4.13 µg/mL
- Live virus neutralization IC50 [2]: 2.92 µg/mL
- Pseudovirion neutralization IC50 [4]: 4.13 µg/mL
- Pseudovirion neutralization IC50 [5]: 4.85 µg/mL

B3: Parental mAb 2 (antibody, V domains shown)
VH: QMQLMQSGAEVKKPGASVTVSCKASGDTFSDYRIHWVRQAPGQGLEWMGRMNPKSGDTNFAQKFQGRVTMTRDMSINTAYMTLSGLTFDDTALYYCASLLIVGGFDPLDDFEVWGQGTMVTISS
VL: QSALTQPPSASGSPGQSVTISCSGTSSDVGGYNFVSWYQHHPGKAPKILIYEVTKRPSGVPDRFSGSKSGNTASLTVSGLQAEDEADYYCSSYGGTNNLLFGGGTKLTVL
- Live virus neutralization IC50 [1]: 16.1 µg/mL
- Live virus neutralization IC50 [2]: 4.62 µg/mL
- Pseudovirion neutralization IC50 [3]: 0.488 µg/mL
- Pseudovirion neutralization IC50 [4]: 7.56 µg/mL
- Pseudovirion neutralization IC50 [5]: 20.6 µg/mL
